Substitutions are numbered along the chain they refer to.

T1: myoglobin (UniProt P02144 2-154)
T1 sequence: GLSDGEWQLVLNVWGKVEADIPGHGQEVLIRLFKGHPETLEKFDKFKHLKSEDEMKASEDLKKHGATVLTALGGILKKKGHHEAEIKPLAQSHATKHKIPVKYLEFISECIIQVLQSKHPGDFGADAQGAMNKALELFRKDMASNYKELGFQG

B1: N24-01 (structured_DNA)
DNA: ACTAGAACTGATCTACAATTTAGGCCGGGTGTTGGGTGGGTAGGGTTTTCTACATCTCAGCATTCT
B2: N24-06 (structured_DNA)
DNA: ACTAGAACTGATCTACAATTTGGGGGGGTTTTGGGGGGGTTGTTGTTTTCTACATCTCAGCATTCT
B3: N24-04 (structured_DNA)
DNA: B2 DNA with G33C, G34T, T40G, T41G, G42T, G45T
B4: N24-07 (with primer sites) (structured_DNA)
DNA: B2 DNA with G25T, G33C, G34T, G35T, G36T, T43G, T44G, G45C
B5: N24-03 (structured_DNA)
DNA: ACTAGAACTGATCTACAATTTGGGTTGGGGGGGTTTTGGGTTTTTTTTTCTACATCTCAGCATTCT

The first series addresses T1, myoglobin. Put plainly: aptamer blotting.
Regarding B1, the binding result is recorded as “binds”.

B2: the binding result was “binds”.

Consider B3, for which the binding result is “binds”.

Take B4: the binding result is “binds”.

Regarding B5, the binding result is listed as “binds”.

The next series concerns the target T1, myoglobin. Briefly: SPR.
GGGCGGGTTGGGCTGGG (structured_DNA) [PEA3-01]: binding was characterised by a dissociation constant (Kd) of 5.8 nM.

The target of the next series is T1, myoglobin. Put plainly: aptamer blotting. This is another data set of the same source.
Turning to GGGCCGGGAGGGTGCAGGG (structured_DNA) [Annexin II-PQS], the binding result is “binds”.

Take GGGATAGGGTTGGGCACTCACAGCTGAATGGG (structured_DNA) [PSA-PQS2]: the binding result is listed as “binds”.

For the molecule GGGAAGGAGGGAGGAAGGGAGGGAGGG (structured_DNA) [aFGF-PQS20], the binding result is “binds”.

For GGGTGGGGGTGGGTTTCTTGGGGTGTAAAGTGGG (structured_DNA) [HER2-PQS3], the binding result was “binds”.

A further series deals with T1, myoglobin. Put plainly: absorption spectroscopy.
Regarding GGGTGGGTTTTCTTTGGGTTGGGC (structured_DNA) [N24-07 core], the binding result is reported as “binds”.

The target of the next series is T1, myoglobin. Briefly: aptamer blotting. The source holds these as a separate data set.
As for TTTTTTTTTTTTTTTTT (ssDNA) [T17], the binding result is given as “binds”.

A further series has as its target T1, myoglobin. Briefly: aptamer blotting. This is another data set of the same source.
In the case of GGGCCGGGAGGGAGGG (structured_DNA) [PEA1-19], the binding result is on record as “binds”.

On to GGGTGGGAAGGGTTGGG (structured_DNA) [PEA1-06], for which the binding result was “binds”.

In the case of GGGCCGGGTTGGGTGTAGAGTGGG (structured_DNA) [PEA1-02], the binding result is reported as “binds”.

Take GGGTGGGAGGGAGGG (structured_DNA) [PEA1-13]: the binding result is “binds”.

Consider GGGTGGGTTGGGAGGG (structured_DNA) [PEA1-20], for which the binding result is recorded as “binds”.

On to GGGTGGGTTTCTTGGGAGGG (structured_DNA) [PEA1-11], for which the binding result is given as “binds”.

GGGAAGGGTTGGGAGGG (structured_DNA) [PEA1-16]: the binding result is reported as “binds”.

The record behind these values is publication PMC8216272.
